# Source: US20100203150A1, “Novel amphiphilic copolymers and fabrication method thereof” (priority 2009, published 2010)
# Test: Solubility in common solvents and co-solvents
# Details: some common organic solvents and co-solvents
substance,measurement,value
5′-deoxy-5-fluorouridine-poly(ε-caprolactone) [5′-DFUR-PCL],solubility,soluble
